# Measurements as given in paper PMC10143822, “Structural Adaptation of the Single-Stranded DNA-Binding Protein C-Terminal to DNA Metabolizing Partners Guides Inhibitor Design” (Pharmaceutics, 2023).
# Where a SMILES comes first, the peptide text is derived from it. Where no end group is shown, it is not given here. [ ]: non-standard residue; d: D form. Phe(4-CF3) = N[C@@H](Cc1ccc(C(F)(F)F)cc1)C(=O)O; Phe(3-Cl) = N[C@@H](Cc1cccc(Cl)c1)C(=O)O; Phe(4-Cl) = N[C@@H](Cc1ccc(Cl)cc1)C(=O)O; Pip = O=C(O)[C@@H]1CCCCN1; β3hD = NC(CC(=O)O)CC(=O)O
# T1: E. coli Exonuclease I (E. coli, UniProt P04995 1-471)
# T1 construct: Exonuclease I of E. coli, from plasmid pET14b-E. coli Exonuclease I (Addgene 104552); The His tag was cut off with thrombin only for the purified protein; also called ExoI; Exol; source: E. coli BL21 (DE3) pLysS, purified (Ni-NTA, heparin); also in cell lysate (pull-down)
# T1 sequence: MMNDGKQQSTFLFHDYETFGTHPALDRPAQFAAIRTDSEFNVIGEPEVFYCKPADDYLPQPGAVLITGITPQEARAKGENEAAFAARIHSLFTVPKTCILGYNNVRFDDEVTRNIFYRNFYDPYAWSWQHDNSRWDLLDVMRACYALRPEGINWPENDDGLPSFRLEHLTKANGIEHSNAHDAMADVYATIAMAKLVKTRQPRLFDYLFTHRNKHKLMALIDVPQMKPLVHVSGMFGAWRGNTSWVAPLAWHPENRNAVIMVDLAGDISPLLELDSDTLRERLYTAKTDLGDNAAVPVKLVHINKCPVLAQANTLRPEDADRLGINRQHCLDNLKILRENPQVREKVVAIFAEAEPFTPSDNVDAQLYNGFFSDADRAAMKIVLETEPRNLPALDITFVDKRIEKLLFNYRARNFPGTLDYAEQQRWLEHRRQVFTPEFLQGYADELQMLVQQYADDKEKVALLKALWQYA
# T2: Escherichia coli RecO (Escherichia coli, UniProt P0A7H3 1-242)
# T2 construct: RecO of Escherichia coli, synthetic gene in pET28a+ with a TEV site at the 5' end; The His tag was cut off with TEV protease only for the purified protein; source: E. coli Rosetta, purified (Ni-NTA, heparin); also in cell lysate (pull-down); not shown: His tag, N-terminal, cleaved
# T2 sequence: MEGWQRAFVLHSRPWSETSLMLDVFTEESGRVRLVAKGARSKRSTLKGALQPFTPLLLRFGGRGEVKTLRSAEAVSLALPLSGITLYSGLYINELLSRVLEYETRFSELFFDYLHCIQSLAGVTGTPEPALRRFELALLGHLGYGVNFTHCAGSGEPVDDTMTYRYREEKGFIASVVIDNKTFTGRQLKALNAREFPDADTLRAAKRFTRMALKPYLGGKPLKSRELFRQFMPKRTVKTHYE
# Experiments:
# ExoI [1] = biological target: T3, ExoI (Escherichia coli, UniProt P04995); assay: Isothermal titration calorimetry with ExoI; type: binding, E. coli; settings: 20 mM Tris–HCl pH 8.0, 100 mM NaCl
# T3 construct: His-tag (cleaved yes); host or cells: E. coli BL21 (DE3) pLysS
# T3 sequence (P04995 whole entry): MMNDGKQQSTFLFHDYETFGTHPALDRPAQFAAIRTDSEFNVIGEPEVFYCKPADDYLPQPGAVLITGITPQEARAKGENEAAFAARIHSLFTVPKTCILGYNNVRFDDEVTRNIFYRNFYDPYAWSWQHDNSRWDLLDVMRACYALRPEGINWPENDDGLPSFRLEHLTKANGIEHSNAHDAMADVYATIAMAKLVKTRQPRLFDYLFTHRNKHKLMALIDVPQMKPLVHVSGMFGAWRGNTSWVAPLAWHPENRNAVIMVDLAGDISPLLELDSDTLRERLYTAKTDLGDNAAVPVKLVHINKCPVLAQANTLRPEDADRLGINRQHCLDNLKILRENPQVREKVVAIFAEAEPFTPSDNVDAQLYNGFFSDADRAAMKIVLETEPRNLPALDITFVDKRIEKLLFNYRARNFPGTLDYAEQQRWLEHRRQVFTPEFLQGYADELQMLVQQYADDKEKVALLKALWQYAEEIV
# Protocol: (§1) Isothermal titration calorimetry (ITC) experiments were performed using a MicroCal VP-ITC titration microcalorimeter. ExoI was dialyzed extensively against the indicated buffer and cleared through centrifugation at 14,000 rpm for 15 min at 4 °C. RecO was subjected to a quick buffer exchange using an Amicon Ultra ultrafiltration device (Sigma). Protein concentrations were determined after the buffer exchange procedure.
# (§2) The raw data were integrated using NITPIC [39]. The binding parameters, association equilibrium constant (KA), binding enthalpy (ΔH), and binding entropy (ΔS) were obtained by fitting the titration curves to a model of A + B = C in SEDPHAT [40]. Stoichiometry was fixed to 1:1 and the incompetent fraction was fitted for the protein concentration.
# ExoI [2] = settings: 1 µM biotin-tagged peptide on streptavidin beads, lysate with 1 µM recombinant ExoI, 30 min; on-bead tryptic digestion, nanoLC-MS/MS intensities
# Protocol: ExoI and RecO expressing cells were grown and lysed, as mentioned above. A fraction of cell lysate was used to quantify the recombinant protein content. BL21 (DE)3 pLysS cells were grown on LB media until OD600 = 2.0 and lysed using sonication. Recombinant protein containing lysates were diluted with BL21 (DE)3 pLysS lysate, setting the final concentration of the recombinant protein to 1 µM. SSB peptides (wtSSB, E1-sSSB, R2-sSSB) were immobilized onto Streptavidin DynaBeads using an N-terminal biotin tag. Then, 1 µM immobilized peptides were incubated with cell lysate for 30 min. Beads were washed with trypsin digestion buffer (20 mM TRIS pH = 8.0, 100 mM NaCl, 2 mM CaCl2). Beads were processed with an on-pellet digestion protocol. NanoLC-MS/MS analysis was carried out on a Waters ACQUITY UPLC M-Class LC system (Waters, Milford, MA, USA) coupled with a Q Exactive^TM Plus Hybrid Quadrupole-Orbitrap^TM mass spectrometer (Thermo Fisher Scientific, Waltham, MA, USA). The instrument was operated in the data-dependent mode. […]
# To test the affinity improvement for E1-sSSB-Ct and R2-sSSB-Ct relative to wtSSB-Ct in a complex environment, we carried out a pull-down assay using bacterial cell lysates. […] The washed bead was digested, and tryptic peptides were detected using HPLC-MS.
# RecO = biological target: T4, RecO (Escherichia coli, UniProt P0A7H3); assay: Isothermal titration calorimetry with RecO; type: binding; settings: 50 mM HEPES pH 7.5, 50 mM NaCl, 25% glycerol; read-out: KD, ITC, RecO
# T4 construct: His-tag (TEV site) (N, cleaved yes); made in house; host or cells: E. coli Rosetta cells
# Protocol: as §1, §2
# E. coli Exonuclease I [3] = biological target: T1, E. coli Exonuclease I; assay: fluorescence polarisation; competition fluorescence anisotropy: 0.5 µM ExoI, 50 nM F-wtSSB tracer, 0–500 µM unlabeled peptide, 30 min at room temperature, read at 25 °C; 20 mM Tris-HCl pH 8.0, 100 mM NaCl, 1 mM MgCl2, 1 mM 2-mercaptoethanol, 10% glycerol; settings: both partners purified
# Escherichia coli RecO [4] = biological target: T2, Escherichia coli RecO; assay: fluorescence polarisation; competition fluorescence anisotropy: 0.5 µM RecO, 50 nM F-wtSSB tracer, 0–500 µM unlabeled peptide, 30 min at room temperature, read at 25 °C; 20 mM Tris-HCl pH 8.0, 200 mM NaCl, 1 mM 2-mercaptoethanol, 10% glycerol, 0.01% Triton-X 100; settings: both partners purified
# Escherichia coli RecO [5] = biological target: T2, Escherichia coli RecO; assay: ITC; peptide in the syringe titrated into RecO in the cell; 50 mM HEPES pH 7.5, 50 mM NaCl, 25% glycerol, 1 mM TCEP; model A + B = C, stoichiometry fixed to 1:1, incompetent fraction fitted; settings: both partners purified
# E. coli Exonuclease I [6] = biological target: T1, E. coli Exonuclease I; assay: ITC; peptide in the syringe titrated into ExoI in the cell; 20 mM Tris–HCl pH 8.0, 100 mM NaCl, 1 mM MgCl2, 4% glycerol, 1 mM β-mercaptoethanol; model A + B = C, stoichiometry fixed to 1:1, incompetent fraction fitted; settings: both partners purified
molecule,measurement,setting,value
CC(=O)N[C@@H](CCC(=O)O)C(=O)N[C@@H](Cc1ccc(C(F)(F)F)cc1)C(=O)N[C@@H](CC(=O)O)C(=O)N[C@@H](CC(=O)O)CC(=O)N[C@@H](CCC(=O)O)C(=O)N[C@@H](CC(C)C)C(=O)N1CCCC[C@H]1C(=O)N[C@@H](Cc1ccc(C(F)(F)F)cc1)C(=O)O [E1-sSSB-Ct] (Ac-E[Phe(4-CF3)]D[β3hD]EL[Pip][Phe(4-CF3)]-OH),"ΔG, ITC, ExoI",ExoI [1],-10.89 kcal/mol
same,"−TΔS, ITC, ExoI",ExoI [1],6.46 kcal/mol
same,"N (stoichiometry), ITC, ExoI","ExoI [1]; 1 mM MgCl2, 4% glycerol, model A + B = C, stoichiometry fixed 1:1, incompetent fraction fitted",1.0000
same,"ΔH, ITC, ExoI",ExoI [1]; confidence interval in brackets,−17.35 (−18.34–−16.43) kcal/mol
same,Kd,"ExoI [1]; read-out: KD, ITC, ExoI (in nM), 1:1 stoichiometry",19 nM
same,enrichment of ExoI on immobilized peptide compared to wtSSB-Ct,ExoI [2],two-fold
CC[C@H](C)[C@H](NC(=O)[C@H](CC(=O)O)NC(=O)[C@H](CC(=O)O)NC(=O)[C@H](CC(=O)O)NC(=O)[C@H](Cc1ccc(Cl)cc1)NC(=O)[C@H](CC(=O)O)NC(C)=O)C(=O)N1CCC[C@H]1C(=O)N[C@@H](Cc1cccc(Cl)c1)C(=O)O [R2-sSSB-Ct] (Ac-D[Phe(4-Cl)]DDDIP[Phe(3-Cl)]-OH),Kd,RecO,35 nM
"Ac-DFDDDIPF (also called wild-type SSB-Ct; source: synthetic peptide (solid phase, HPLC purified)) [wtSSB-Ct, octapeptide identical to the SSB C-terminal acidic tip (residues 171-178 of SSB)]",IC50,E. coli Exonuclease I [3],4540 ± 340 nM
same,IC50,Escherichia coli RecO [4],4660 ± 240 nM
same,Kd,Escherichia coli RecO [5],140 nM
same,dH,Escherichia coli RecO [5],-7.54 kcal/mol
same,stoichiometry N,Escherichia coli RecO [5],1
same,Kd,E. coli Exonuclease I [6],3070 nM
same,dH,E. coli Exonuclease I [6],-10.7 kcal/mol
same,stoichiometry N,E. coli Exonuclease I [6],0.959
